Data published in patent US20240324599A1, “PESTICIDAL ENZYMES FOR USE ON NEMATODES, INSECTS, AND MOLLUSKS” (priority 2023, published 2024).

B1: Bacillus subtilis Esterase (EstB without signal sequence) (protein, listed as Bacillus subtilis)
chain: ESVHNPVVLVHGISGASYNFFAIKNYLISQGWQSNKLYAIDFYDKTGNNLNNGPQLASYVDRVLKETGAKKVDIVAHSMGGANTLYYIKYLGGGNKIQNVVTLGGANGLVSSTALPGTDPNQKILYTSIYSLNDQIVINSLSRLQGARNIQLYGIGHIGLLSNSQVNGYIKEGLNGGGLNTN
modifications: Esterase (EstB H191 without signal sequence)
B2: Streptomyces coelicolor Chitinase F (Chi19F) (protein)
chain: ASCSSYHAWSADANYNTGDIVRYTDGKAYIAEHANPGYDPLISTWYWDPYACDGGSQTPVGNFVVSEAQFNQMFPGRNSFYTYSGLTAALSAYPGFANTGSDTTKKQEAAAFLANVSHETGGLVYIVEQNTANYPHYCDWNQPYGCPAGQAAYYGRGPIQLSWNFNYKAAGDALGIDLLGNPWLVQNDAAVAWKTGLWYWNTQSGPGTMTPHNAMVNGAGFGQTIRSINGSLECDGKNPAQVQSRVTKYQQFAQILGVSPGGNLYC
modifications: Chitinase F (Chi19F); Streptomyces coelicolor

Assays:
[1] = system: Fall armyworm (Spodoptera frugiperda); assay: Diet-surface overlay (DSO) bioassay; type: in vivo; details: for Larva Stage I / Larva Stage II / Larva Stage III / Larva Stage IV / Dead Larva: number of individuals
Outline: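 Enzyme treatments (0.1 mL) were spread and dried on artificial diet (no antibiotics), then one first-instar larva was placed per cell, 16 or 32 larvae per treatment. Trays were held at 27° C., 16:8 h light-dark, and developmental categories were counted after 7 days. Controls were filtered water and Btk spores at 1000 ppm.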

[2] = system: soybean cyst nematode (SCN); assay: Soil application around soybean plants: SCN cysts per gram of root tissue; type: in vivo, Heterodera glycines; details: Table 34; for Average cysts per g of root tissue: 0.5 mL/plant to soil, soybean 2830E3, 3 weeks, water control 139.8; for % Comparison to Control: water control = 100%, change in brackets
Method: To determine the efficacy of nematicidal enzymes applied to soil, a controlled environment trial was performed with 7-day old soybean plants (variety 2830E3) grown in pots. Enzymes were produced as described in Example 2. Prior to inoculation, 0.5 mL of neutral protease (SEQ ID NO: 127), esterase B (SEQ ID NO: 89), or chitinase 19F (SEQ ID NO: 182) free enzyme solution was applied to the soil around the base of each plant, or 0.5 mL of water was applied for the control (30 plants per treatment). Then, hatched SCN juveniles were applied to the soil around each plant as described in Example 2, and three weeks later, cysts per gram of root tissue was determined as described in Example 2. The data was analyzed as in Example 2 and appears in Tables 33 and 34.
To determine the efficacy of recombinant strains applied to soil, a controlled environment trial was performed as described in Example 18 above (Reduction of soybean cyst nematode reproduction by enzymes applied to soil), with the exception that a recombinant strain expressing neutral protease (SEQ ID NO: 127) was applied instead of a free enzyme solution. The recombinant strain was produced as in Example 3, and the treatment applied to soil as a whole cell broth.

[3] = system: Steinernema feltiae; assay: In-vitro plate assay: Steinernema feltiae juvenile death after direct treatment; type: in vivo; details: 40 μL per well (ILEVO 20 μL)
Method: To determine the effects of enzymes on an additional soil-dwelling nematode species (Steinernema feltiae), a NemAttack™ package containing approximately 5 million S. feltiae juveniles was purchased from ARBICO Organics. The nematodes arrived already hatched and dispersed within a powder. To prepare the nematodes for use, an aliquot of the dry nematode mixture was rehydrated in water. The liquid nematode mixture was adjusted to a concentration of 20-30 nematode juveniles per 10 μL. The free enzymes Esterase B (SEQ ID NO: 89) and Chitinase 19F (SEQ ID NO: 182) were produced as described in Example 2.
Potato dextrose agar media containing chloramphenicol and chlortetracycline was prepared and added to sterile twenty-four-well cell culture plates (1 mL per well). The plates were divided according to the pre-determined N-value for each treatment (N=12-24). […]
To quantify the treatments' effects on nematode viability, the nematodes were examined under a dissecting microscope at 20× magnification. Initial (T0) values for the number of live juveniles, number of dead juveniles and total number of juveniles were recorded immediately after preparation of each well. […] Approximately 20-22 hours post addition of juveniles, the plates were evaluated, and the number of live juveniles, dead juveniles and total number of juveniles were recorded. […]

Row | Molecule | Larva Stage I ([1]; Table 50, esterases, n=32) | Larva Stage II ([1]; Table 50, esterases, n=32) | Larva Stage III ([1]; Table 50, esterases, n=32) | Larva Stage IV ([1]; Table 50, esterases, n=32) | Dead Larva ([1]; Table 50, esterases, n=32, dose per treatment in U/mL Diet) | individuals with delayed development ([1]; text to Table 50) | Average cysts per g of root tissue [2] | % Comparison to Control [2] | Difference in Percent Death of Nematodes for 0 to 20 Hours ([3]; Table 23, water control 3%) | Larva Stage I ([1]; Table 48, chitinases, n = 32) | Larva Stage II ([1]; Table 48, chitinases, n = 32) | Larva Stage III ([1]; Table 48, chitinases, n = 32) | Larva Stage IV ([1]; Table 48, chitinases, n = 32) | Dead Larva ([1]; Table 48, chitinases, n = 32, dose per treatment in mU/mL Diet) | Difference in Percent Death of Nematodes for 0 to 22 Hours ([3]; Table 24, water control 7%)
1 | B1 | 3 | 4 | 14 | 10 | 1 | 67% | 117.3 cysts per g of root tissue | 84% (−16%) | 33% |  |  |  |  |  | 
2 | B2 |  |  |  |  |  |  | 95.6 cysts per g of root tissue | 68% (−32%) |  | 4 | 14 | 5 | 6 | 3 | 17%
